This note sets out measurements from paper PMC9223101, “Transcription Regulation of Cell Cycle Regulatory Genes Mediated by NtrX to Affect Sinorhizobium meliloti Cell Division”.

In this data set the target is T1, NtrX D53E (His-NtrXD53E) (Sinorhizobium meliloti 1021, UniProt Q92Q87 1-454, D53E).
T1 sequence: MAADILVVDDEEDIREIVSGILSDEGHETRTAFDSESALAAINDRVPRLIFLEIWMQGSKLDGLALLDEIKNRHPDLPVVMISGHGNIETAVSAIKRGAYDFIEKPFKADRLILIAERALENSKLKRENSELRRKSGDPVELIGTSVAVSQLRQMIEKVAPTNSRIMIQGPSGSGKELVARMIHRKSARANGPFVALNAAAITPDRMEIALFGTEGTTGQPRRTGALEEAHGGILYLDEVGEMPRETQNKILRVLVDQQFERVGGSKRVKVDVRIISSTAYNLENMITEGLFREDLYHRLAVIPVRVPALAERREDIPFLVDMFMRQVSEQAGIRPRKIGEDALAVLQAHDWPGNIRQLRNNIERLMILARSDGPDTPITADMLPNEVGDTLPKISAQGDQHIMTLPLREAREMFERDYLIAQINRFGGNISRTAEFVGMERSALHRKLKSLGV
The experiment in a line: EMSA; 5 mM Mg2+; almost no complex; EMSA, 20 uL: 3, 6, 15 ng NtrX, 2 nM probe (2 or 40 nM in Methods), 1x binding buffer, 5 mM MgCl2, 50 ng/uL poly(dI-dC), 0.05% NP-40, 1% glycerol, 30 min at 28 C; pH and salt of binding buffer not stated (phosphorylation in 50 mM Tris-HCl pH 7.6, 50 mM KCl, 20 mM MgCl2 nominal 1x). The conditions noted are these: protein: recombinant; tags: His (pET28b); chain copies: 2; label: biotin; blunt.

B1: ntrY promoter probe (dsDNA)
DNA 1: GCGCTTGACTGAGATGCAACACCGTTGCATTTTCGCCACAATGCGTTGCTTGAACCTCGCATAAGCGTCGATTCGCCGGC
DNA 2: GCCGGCGAATCGACGCTTATGCGAGGTTCAAGCAACGCATTGTGGCGAAAATGCAACGGTGTTGCATCTCAGTCAAGCGC
As for B1, the binding result is “no binding”.
